According to paper PMC6021111, “Murine leukemia virus p12 tethers the capsid-containing pre-integration complex to chromatin by binding directly to host nucleosomes in mitosis” (PLoS Pathogens, 2018):

Experiments:
Format in all cases: cell-based
[1] = Biochemical fractionation of 293T cells expressing GST-p12; details: cycling cells, ~40 h expression, immunoblot of S2, S3, P3
Procedure: GST-p12 proteins were expressed in 293T cells from pCAGGS/GST-derived plasmids by transient transfection using Turbofect (Thermo Fisher Scientific). Cell media was changed 24 h after transfection, and cells were incubated overnight at 37°C, before being harvested, counted, pelleted (500 g, 5 min) and snap frozen in dry ice/ethanol. Biochemical fractionation of cells was performed essentially as described in [14]. Briefly, cell pellets thawed on ice were resuspended at 2.5× 10^7 cells/ml in buffer 1 (10 mm HEPES pH 7.9, 10 mm KCl, 1.5 mm MgCl2, 10% glycerol, 0.34 m sucrose, 1 mm DTT and protease inhibitors) and then supplemented with 0.1% Triton-X-100. Cells were incubated on ice for 5 min and nuclei (P1) were collected by centrifugation at 1300 g, 5 min, 4°C. The supernatant (S1) was clarified by further centrifugation (5 min, 20 000 × g, 4°C) to collect the cytosolic supernatant fraction (S2). The P1 nuclei were washed once with buffer 1 and then lysed for 30 min in buffer 2 (3 mM EDTA, 0.2 mM EGTA and 1 mM DTT, protease inhibitors). The chromatin (P3) and soluble nuclear (S3) fractions were separated by centrifugation (5 min, 1700 g, 4°C). The S2, S3 and P3 fractions were analysed by immunoblotting.

[2] = tested on: GST-p12 phosphorylation in 293T cells; test: GST-p12 phosphorylation by ProQ diamond / Sypro ruby staining; details: PQ/SR ratio, 3 technical replicates; "at least"
Procedure: Firstly, GST-p12 pulled-down from mitotic cell lysates was analysed by SDS-PAGE followed by sequential staining with two fluorescent dyes, ProQ diamond (PQ) and Sypro Ruby (SR). PQ is a small molecule fluorophore that binds with high-specificity to phosphorylated proteins. SR binds all proteins and is useful as a total protein indicator. The ratio of PQ and SR dye signals provides a measure of the phosphorylation level with respect to the total amount protein. Viral p12 is known to be mainly phosphorylated at serine 61 within the CTD [19, 25]. We therefore compared the relative phosphorylation levels of GST-p12_WT with a S61A mutant. Compared to p12_S61A, p12_WT was at least 3-fold more phosphorylated (Fig 3E, lanes 2 and 3).
GST-p12 proteins were expressed in 293T cells from pCAGGS/GST-derived plasmids by transient transfection using Turbofect (Thermo Fisher Scientific). Approximately 24 h after transfection, cells were changed into fresh media containing either 400 ng/ml nocodazole (Sigma) or 2 μg/ml aphidicolin (Sigma) and incubated overnight at 37°C. The synchronisation of the cell cultures after drug treatment was assessed by propidium iodide staining and cell cycle phase analysis by flow cytometry. […] ProQ diamond and Sypro ruby staining (Thermo Fisher Scientific) of gels was visualised and quantified on a ChemiDoc imaging system (Bio-Rad).

[3] = tested on: GST-p12 phosphorylation in 293T cells; test: nano LC-MS/MS phosphopeptide identification of GST-p12
Excerpt: We next used nanoscale liquid chromatography coupled to tandem mass spectrometry (nano LC–MS/MS) to identify phosphopeptides of GST-p12_WT precipitated from 293T cells. The phosphorylation sites in the high confidence tryptic-peptides (<1% false discovery rate, FDR) were assigned using the probability-based phosphoRS algorithm (Table 1). A peptide was counted as being phosphorylated at a specific residue if its phosphoRS site probability was >50%. For each tryptic peptide, the phosphorylation level at a particular site was estimated by dividing the phosphorylated peptide count by the total peptide count. This analysis, carried out with two biological replicates, confirmed S61 to be the main site of phosphorylation on GST-p12_WT, with ~45% of S61-containing peptides phosphorylated at this residue (Table 1). We also identified T52, S65, S78, T80 and S81 as additional sites of low-level phosphorylation on p12 (Table 1). […] The absence of a detectable association between GST-p12 and mitotic chromatin is therefore unlikely to result from a lack of phosphorylation of recombinant p12.
To identify phosphopeptides of GST-p12, bead eluates were separated by SDS-PAGE and stained using SimplyBlue safe stain (Thermo Fisher Scientific). The band corresponding to GST-p12 was then excised and submitted for nano-LC-MS/MS analysis as described in [54], but without phosphopeptides enrichment. The probability-based phosphoRS algorithm was used for assigning phosphorylation sites in the detected peptides.

B1: GST-p12_WT: N-terminally GST-tagged Mo-MLV p12 (protein)
chain: PALTPSLGAKPKPQVLSDSGGPLIDLLTEDPPPYRDPRPPPSDRDGNGGEATPAGEAPDPSPMASRLRGRREPPVADSTTSQAF
modifications: left off: GST, N-terminal, kept
notes: N-terminally GST-tagged Mo-MLV p12
sub-cellular distribution by fractionation [1]: mainly cytoplasmic | phosphorylation at mitosis in comparison to interphase [2]: 3–4 fold | Fraction of phosphorylated peptides ([3]; S61, peptide aa 36–66, 1 missed cleavage, replicate R1): 0.47 | Fraction of phosphorylated peptides ([3]; S61, peptide aa 36–66, 1 missed cleavage, replicate R2): 0.52 | Fraction of phosphorylated peptides ([3]; S61, peptide aa 45–66, 0 missed cleavages, replicate R1): 0.36 | Fraction of phosphorylated peptides ([3]; S61, peptide aa 45–66, 0 missed cleavages, replicate R2): 0.49 | Fraction of phosphorylated peptides ([3]; S65, peptide aa 45–66, 0 missed cleavages, replicate R1): 0.01 | Fraction of phosphorylated peptides ([3]; S65, peptide aa 45–66, 0 missed cleavages, replicate R2): 0.07 | Fraction of phosphorylated peptides ([3]; S78, peptide aa 72–84+ linker, 0 missed cleavages, replicate R1): 0.03 | Fraction of phosphorylated peptides ([3]; S78, peptide aa 72–84+ linker, 0 missed cleavages, replicate R2): 0.03 | Fraction of phosphorylated peptides ([3]; S81, peptide aa 71–84+ linker, 1 missed cleavage, replicate R1): 0.10 | Fraction of phosphorylated peptides ([3]; S81, peptide aa 72–84+ linker, 0 missed cleavages, replicate R1): 0.03 | Fraction of phosphorylated peptides ([3]; S81, peptide aa 72–84+ linker, 0 missed cleavages, replicate R2): 0.01 | Fraction of phosphorylated peptides ([3]; T52, peptide aa 45–66, 0 missed cleavages, replicate R1): 0.13 | Fraction of phosphorylated peptides ([3]; T52, peptide aa 45–66, 0 missed cleavages, replicate R2): 0.04 | Fraction of phosphorylated peptides ([3]; T80, peptide aa 71–84+ linker, 1 missed cleavage, replicate R1): 0.04 | Fraction of phosphorylated peptides ([3]; T80, peptide aa 72–84+ linker, 0 missed cleavages, replicate R1): 0.01
